# Starred links: 1 amine or outer side, 2 acyl side, 3 side chain; linkers in the order of their positions; H or OH if unused. Positions of bridges follow the written chain, without caps; N, C: chain ends. Non-standard residues stand in square brackets, D forms with d. Residues, ends and D or L forms follow the SMILES beside them. *: point of attachment. X1 = CC(C)[C@H](NC(=O)Cn1cc(CCC(=O)*)nn1)C(=O)N[C@@H](CCCNC(N)=O)C(=O)Nc1ccc(COC(=O)N(C)CCN(C)C(=O)O[C@@H]2[C@@H]3OP(=O)(O)OC[C@H]4O[C@@H](n5cnc6c(N)ncnc65)[C@H](O)[C@@H]4OP(=O)(O)OC[C@H]3O[C@H]2n2cnc3c(=O)[nH]c(N)nc32)cc1; X4 = CC(C)[C@H](NC(=O)Cn1cc(CCC(=O)*)nn1)C(=O)N[C@@H](CCCNC(N)=O)C(=O)Nc1ccc(COC(=O)NCCNC(=O)O[C@@H]2[C@@H]3OP(=O)(O)OC[C@H]4O[C@@H](n5cnc6c(N)ncnc65)[C@H](O)[C@@H]4OP(=O)(O)OC[C@H]3O[C@H]2n2cnc3c(=O)[nH]c(N)nc32)cc1; X5 = Nc1nc2c(ncn2[C@@H]2O[C@@H]3COP(=O)(O)O[C@H]4[C@@H](O)[C@H](n5cnc6c(N)ncnc65)O[C@@H]4COP(=O)(O)O[C@H]3[C@H]2OC(=O)NCCSSCCCC(=O)*)c(=O)[nH]1; X2 = Nc1nc2c(ncn2[C@@H]2O[C@@H]3COP(=O)(O)O[C@H]4[C@@H](O)[C@H](n5cnc6c(N)ncnc65)O[C@@H]4COP(=O)(O)O[C@H]3[C@H]2OC(=O)*)c(=O)[nH]1; X6 = Nc1ncnc2c1ncn2[C@@H]1O[C@@H]2COP(=O)(S)O[C@H]3[C@@H](OC(=O)*)[C@H](n4cnc5c(N)ncnc54)O[C@@H]3COP(=O)(S)O[C@H]2[C@H]1F; 1Nal = N[C@@H](Cc1cccc2ccccc12)C(=O)O; TBMB = c1c(C[*:1])cc(C[*:3])cc1C[*:2]; X3 = O=C(CCc1cn(CCCN[*:1])nn1)[*:2]; Tle = CC(C)(C)[C@H](N)C(=O)O; βAla = NCCC(=O)O; Sar = CNCC(=O)O
# Assays:
# in vitro [1] = conditions: mouse, plasma, pH 7.4
# Description: (§1) The pooled frozen mouse, rat, monkey or human plasma is thawed in a water bath at 37° C. prior to experiment. Plasma is centrifuged at 4000 rpm for 5 min and the clots are removed if any. The pH is adjusted to 7.4±0.1 if required. 5 mM intermediate solutions of test compounds are prepared with DMSO. 1 mM intermediate solution of positive control Propantheline is prepared by diluting 5 μL of the stock solution with 45 μL ultra pure water. 1 mM intermediate solution of positive control Enalaprit is prepared by diluting 5 μL of the stock solution with 45 μL DMSO. 100 μM dosing solution is prepared by diluting 20 μL of the intermediate solution (1 mM) with 180 μL DMSO. For positive controls, 100 μM intermediate solution is prepared by diluting 20 μL of the stock solution with 180 μL 45% MeOH/H2O. […] 196 μL of blank plasma is spiked with 4 μL of dosing solution (100 μM) to achieve 2 μM of the final concentration in duplicate and samples are incubated at 37° C. in a water bath. At each time point (0, 1, 2, 4, 6 and 24 hr), 800 μL of stop solution (200 ng/mL tolbutamide, 200 ng/ML Labetalol in 50% MeOH/ACN) was added to precipitate protein and mixed thoroughly. Sample plates are centrifuged at 4,000 rpm for 10 min. An aliquot of supernatant (150 μL) is transferred from each well before submitting to LC-MS/MS analysis.
# (§2) The percentage of test compound remaining at the individual time points relative to the 0 hour sample is calculated using following equation: Percent Remaining=100×(PAR at appointed incubation time/PAR at To time) where PAR is the peak area ratio of analyte versus internal standard (IS).
# in vitro [2] = conditions: human, plasma, pH 7.4
# Description: as §1, §2
# in vitro [3] = conditions: rat, plasma, pH 7.4
# Description: as §1, §2
# Plasma stability (cyno) = assay type: in vitro ADME; conditions: cynomolgus monkey, pH 7.4, 37° C., read-out: T1/2 (cyno)
# Description: as §1, §2
# in vitro [4] = conditions: male, CD-1, mouse, whole blood
# Description: CD-1 mouse blood (n >2,male, fasted overnight) is collected from animals housed at an internal facility. (EDTA-K2 is used as anticoagulant)
# The test compounds and positive control stock solutions are prepared to 10 mM in DMSO or ultrapure water. […] The dosing solutions of test compounds and controls are prepared by diluting the stock solution with 45% MeOH/H2O to achieve 100 uM. Test compound solutions (final incubation concentration=2 μM) are incubated with blood (final DMSO concentration≤1%) at six different time points (0, 1, 2, 4, 6 and 24 hours) in duplicate (n=2). The reaction is terminated by adding 100 uL ultra-pure water, mixing well, then adding 800 uL of 100% methanol containing 200 ng/mL tolbutamide and 200 ng/mL labetalol as internal standards. Samples are then vortexed and centrifuged at 3200×g for 20 minutes. Following centrifugation, the concentration of test compound in the supernatant is determined semi-quantitatively by LC-MS/MS. The percentage of test compound remaining at the individual time points relative to the 0 hour sample is then reported. The percent remaining of test compound after incubation in blood is calculated using following equation: Percent Remaining=100×(PAR at appointed incubation time/PAR at To time) where PAR is the peak area ratio of analyte versus internal standard (IS).
# [5] = 3 mg/kg IV, male CD-1 mice, plasma (FIG. 1)
# Description: Male CD-1 mice were dosed with 3 mg/kg of Bicycle Conjugate formulated in 25 mM Histidine HCl, 10% sucrose pH 7 via tail vein injection. Serial bleeding (about 80 μL blood/time point) was performed via submadibular or saphenous vein at each time point. All blood samples were immediately transferred into prechilled microcentrifuge tubes containing 2 μL K2-EDTA (0.5M) as anti-coagulant and placed on wet ice. Blood samples were immediately processed for plasma by centrifugation at approximately +4° C., 3000 g. The precipitant including internal standard (350 uL) was immediately added into the 35 uL plasma sample, mixed well and centrifuged at 3220 g, +4° C. for 15 minutes. The supernatant was transferred into pre-labelled polypropylene microcentrifuge tubes, and then quick-frozen over dry ice. The samples were stored at −70° C. or below as needed until analysis. Supernatant samples were mixed with 50 uL water, vortexed well and centrifuged at 3220 g, +4° C. for 15 minutes. A sample of the supernatant was injected for LC-MS/MS analysis using an Acquity UPLC with AB Sciex 6500+Triple Quad MS in positive ion mode to determine the concentrations of Bicycle conjugate and released payload. Plasma concentration versus time data were analyzed by non-compartmental approaches using the Phoenix WinNonlin 6.3 software program. […]
SMILES,half-life at 2 μM (in vitro [1]) [h],half-life at 2 μM (in vitro [2]) [h],half-life at 2 μM (in vitro [3]) [h],half-life at 2 μM (Plasma stability (cyno)) [h],half-life at 2 μM (in vitro [4]) [h],stability in mouse blood,systemic elimination [5]
C[C@H](NC(=O)CN(C)C(=O)CN(C)C(=O)CN(C)C(=O)CN(C)C(=O)CN(C)C(=O)CN(C)C(=O)CN(C)C(=O)CN(C)C(=O)CN(C)C(=O)CN(C)C(=O)CCNC(=O)CCc1cn(CCCNC(=O)O[C@@H]2[C@@H]3OP(=O)(S)OC[C@H]4O[C@@H](n5cnc6c(N)ncnc65)[C@H](F)[C@@H]4OP(=O)(S)OC[C@H]3O[C@H]2n2cnc3c(N)ncnc32)nn1)C(=O)N[C@H]1CSCc2cc3cc(c2)CSC[C@H](NC(=O)[C@@H](C)NC(=O)[C@H](Cc2cccc4ccccc24)NC(=O)[C@H](CCC(=O)O)NC(=O)[C@H](CC(N)=O)NC(=O)[C@@H](C)NC1=O)C(=O)N[C@@H](CCC(=O)O)C(=O)N[C@@H](CC(=O)O)C(=O)N[C@@H](Cc1ccccc1)C(=O)N[C@@H](Cc1ccc(O)cc1)C(=O)N[C@@H](CC(=O)O)C(=O)N[C@@H](C(C)(C)C)C(=O)N[C@H](C(N)=O)CSC3 (stereo partly shown) [Conjugate 1 of Example 7.4] (X6-[X3][βAla][Sar][Sar][Sar][Sar][Sar][Sar][Sar][Sar][Sar][Sar]AC[dA]NE[1Nal][dA]CEDFYD[Tle]C-NH2; linker 14-20-27 via TBMB),6 to 24,> 24,> 24,> 24,–,–,–
C[C@H](NC(=O)CN(C)C(=O)CN(C)C(=O)CN(C)C(=O)CN(C)C(=O)CN(C)C(=O)CN(C)C(=O)CN(C)C(=O)CN(C)C(=O)CN(C)C(=O)CN(C)C(=O)CCNC(=O)CCCSSCCNC(=O)O[C@@H]1[C@@H]2OP(=O)(O)OC[C@H]3O[C@@H](n4cnc5c(N)ncnc54)[C@H](O)[C@@H]3OP(=O)(O)OC[C@H]2O[C@H]1n1cnc2c(=O)[nH]c(N)nc21)C(=O)N[C@H]1CSCc2cc3cc(c2)CSC[C@H](NC(=O)[C@@H](C)NC(=O)[C@H](Cc2cccc4ccccc24)NC(=O)[C@H](CCC(=O)O)NC(=O)[C@H](CC(N)=O)NC(=O)[C@@H](C)NC1=O)C(=O)N[C@@H](CCC(=O)O)C(=O)N[C@@H](CC(=O)O)C(=O)N[C@@H](Cc1ccccc1)C(=O)N[C@@H](Cc1ccc(O)cc1)C(=O)N[C@@H](CC(=O)O)C(=O)N[C@@H](C(C)(C)C)C(=O)N[C@H](C(N)=O)CSC3 [I-64] ({X5-βAla}-[Sar][Sar][Sar][Sar][Sar][Sar][Sar][Sar][Sar][Sar]AC[dA]NE[1Nal][dA]CEDFYD[Tle]C-NH2; linker 12-18-25 via TBMB),< 2,< 2,< 2,< 2,–,–,–
CC(C)[C@H](NC(=O)Cn1cc(CCC(=O)NCCC(=O)N(C)CC(=O)N(C)CC(=O)N(C)CC(=O)N(C)CC(=O)N(C)CC(=O)N(C)CC(=O)N(C)CC(=O)N(C)CC(=O)N(C)CC(=O)N(C)CC(=O)N[C@@H](C)C(=O)N[C@H]2CSCc3cc4cc(c3)CSC[C@H](NC(=O)[C@@H](C)NC(=O)[C@H](Cc3cccc5ccccc35)NC(=O)[C@H](CCC(=O)O)NC(=O)[C@H](CC(N)=O)NC(=O)[C@@H](C)NC2=O)C(=O)N[C@@H](CCC(=O)O)C(=O)N[C@@H](CC(=O)O)C(=O)N[C@@H](Cc2ccccc2)C(=O)N[C@@H](Cc2ccc(O)cc2)C(=O)N[C@@H](CC(=O)O)C(=O)N[C@@H](C(C)(C)C)C(=O)N[C@H](C(N)=O)CSC4)nn1)C(=O)N[C@@H](CCCNC(N)=O)C(=O)Nc1ccc(COC(=O)NCCNC(=O)O[C@@H]2[C@@H]3OP(=O)(O)OC[C@H]4O[C@@H](n5cnc6c(N)ncnc65)[C@H](O)[C@@H]4OP(=O)(O)OC[C@H]3O[C@H]2n2cnc3c(=O)[nH]c(N)nc32)cc1 [I-65] ({X4-βAla}-[Sar][Sar][Sar][Sar][Sar][Sar][Sar][Sar][Sar][Sar]AC[dA]NE[1Nal][dA]CEDFYD[Tle]C-NH2; linker 12-18-25 via TBMB),6 to 24,> 24,> 24,> 24,–,–,–
C[C@H](NC(=O)CN(C)C(=O)CN(C)C(=O)CN(C)C(=O)CN(C)C(=O)CN(C)C(=O)CN(C)C(=O)CN(C)C(=O)CN(C)C(=O)CN(C)C(=O)CN(C)C(=O)CCNC(=O)CCc1cn(CCCNC(=O)O[C@@H]2[C@@H]3OP(=O)(O)OC[C@H]4O[C@@H](n5cnc6c(N)ncnc65)[C@H](O)[C@@H]4OP(=O)(O)OC[C@H]3O[C@H]2n2cnc3c(=O)[nH]c(N)nc32)nn1)C(=O)N[C@H]1CSCc2cc3cc(c2)CSC[C@H](NC(=O)[C@@H](C)NC(=O)[C@H](Cc2cccc4ccccc24)NC(=O)[C@H](CCC(=O)O)NC(=O)[C@H](CC(N)=O)NC(=O)[C@@H](C)NC1=O)C(=O)N[C@@H](CCC(=O)O)C(=O)N[C@@H](CC(=O)O)C(=O)N[C@@H](Cc1ccccc1)C(=O)N[C@@H](Cc1ccc(O)cc1)C(=O)N[C@@H](CC(=O)O)C(=O)N[C@@H](C(C)(C)C)C(=O)N[C@H](C(N)=O)CSC3 [I-66] (X2-[X3][βAla][Sar][Sar][Sar][Sar][Sar][Sar][Sar][Sar][Sar][Sar]AC[dA]NE[1Nal][dA]CEDFYD[Tle]C-NH2; linker 14-20-27 via TBMB),> 24,> 24,> 24,> 24,6 to 24,dramatic stability,–
CC(C)[C@H](NC(=O)Cn1cc(CCC(=O)NCCC(=O)N(C)CC(=O)N(C)CC(=O)N(C)CC(=O)N(C)CC(=O)N(C)CC(=O)N(C)CC(=O)N(C)CC(=O)N(C)CC(=O)N(C)CC(=O)N(C)CC(=O)N[C@@H](C)C(=O)N[C@H]2CSCc3cc4cc(c3)CSC[C@H](NC(=O)[C@@H](C)NC(=O)[C@H](Cc3cccc5ccccc35)NC(=O)[C@H](CCC(=O)O)NC(=O)[C@H](CC(N)=O)NC(=O)[C@@H](C)NC2=O)C(=O)N[C@@H](CCC(=O)O)C(=O)N[C@@H](CC(=O)O)C(=O)N[C@@H](Cc2ccccc2)C(=O)N[C@@H](Cc2ccc(O)cc2)C(=O)N[C@@H](CC(=O)O)C(=O)N[C@@H](C(C)(C)C)C(=O)N[C@H](C(N)=O)CSC4)nn1)C(=O)N[C@@H](CCCNC(N)=O)C(=O)Nc1ccc(COC(=O)N(C)CCN(C)C(=O)O[C@@H]2[C@@H]3OP(=O)(O)OC[C@H]4O[C@@H](n5cnc6c(N)ncnc65)[C@H](O)[C@@H]4OP(=O)(O)OC[C@H]3O[C@H]2n2cnc3c(=O)[nH]c(N)nc32)cc1 [I-68] ({X1-βAla}-[Sar][Sar][Sar][Sar][Sar][Sar][Sar][Sar][Sar][Sar]AC[dA]NE[1Nal][dA]CEDFYD[Tle]C-NH2; linker 12-18-25 via TBMB),6 to 24,> 24,> 24,> 24,2 to 6,dramatic stability,rapid systemic elimination
